Data: patent US20190328899A1 (HEIDELBERG PHARMA RESEARCH, published 2019)

T1: B-Cell maturation antigen (BCMA) on BCMA-expressing multiple myeloma cell lines (human, UniProt Q02223 1-184)
T1 sequence (looked up): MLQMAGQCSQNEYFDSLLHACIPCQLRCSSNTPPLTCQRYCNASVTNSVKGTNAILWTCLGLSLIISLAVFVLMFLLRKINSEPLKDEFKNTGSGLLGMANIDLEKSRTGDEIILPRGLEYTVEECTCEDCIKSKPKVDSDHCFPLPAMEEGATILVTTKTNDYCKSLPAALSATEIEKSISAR

B1: J22.9-ISY-D265C-30.1699 (antibody, V domains shown)
VH: EVQLVESGGGLVQPGGSLRLSCAASGFTFSRYWISWVRQAPGKGLVWVGEINPSSSTINYAPSLKDKFTISRDNAKNTLYLQMNSLRAEDTAVYYCASLYYDYGDAYDYWGQGTLVTVSS
VL: EIVMTQSPATLSVSPGERATLSCKASQSVESNVAWYQQKPGQAPRALIYSASLRFSGIPARFSGSGSGTEFTLTISSLQSEDFAVYYCQQYNNYPLTFGAGTKLELKR
modifications: alpha-amanitin-linker HDP 30.1699 (cathepsin B cleavable linker, maleimide) on the engineered Cys 265
B2: amanitin-conjugate J22.9-ISY-D265C-30.2115 (antibody, V domains shown)
VH: B1 VH
VL: B1 VL
modifications: amatoxin-linker HDP 30.2115 (cathepsin B cleavable linker, maleimide) on the engineered Cys 265
B3: Thiomab antibody J22.9-ISY-D265C (antibody, human IgG1, kappa, V domains shown)
VH: B1 VH
VL: B1 VL
notes: Unconjugated antibody; also called thiomab J22.9-ISY-D265C

Assays:
[1] = target: B-Cell maturation antigen (BCMA) on BCMA-expressing multiple myeloma cell lines (human) (UniProt Q02223); test: cell-based or functional assay
[2] = target: T1, B-Cell maturation antigen (BCMA) on …; test: cell-based or functional assay
[3] = target: T1, B-Cell maturation antigen (BCMA) on …; test: cell-based or functional assay; remark: listed apart in the source
[4] = target: T1, B-Cell maturation antigen (BCMA) on …; test: flow cytometry-binding assay on MM.1S Luc and NCI-H929 cells

Molecule | cytotoxic potential EC50, KMS-11 cells, 96 h [1] [pM] | cytotoxic potential EC50, MM.1S Luc cells, 96 h [1] [pM] | cytotoxicity EC50 [M], MM.1S Luc cells, 96 h [2] [M] | cytotoxicity EC50 [M], MM.1S cells, 96 h [2] [M] | cytotoxicity EC50 [M], NCI-H929 cells, 96 h [2] [M] | cytotoxicity EC50 [M], OPM-2 cells, 96 h [2] [M] | cytotoxicity EC50 [M], U266B1 cells, 96 h [2] [M] | cytotoxic potential EC50, KMS-11 cells, 96 h [3] [nM] | cytotoxic potential EC50, MM.1S Luc cells, 96 h [3] [pM] | binding result [4]
monomethyl auristatin F derivative J22.9-ISY-MMAF (antibody) | 626 | 481 |  |  |  |  |  |  |  | 
B1 |  |  | 6.5e-11 | 1.7e-10 | 7e-11 | 7.9e-09 | 7.3e-11 |  |  | 
B2 |  |  | 2.3e-10 | 2.9e-10 | 9.7e-11 | 1.4e-07 | 1.4e-10 | 1.72 | 558 | 
B3 |  |  |  |  |  |  |  |  |  | binds
